Results: publication PMC9482650, “Quantitative fragmentomics allow affinity mapping of interactomes” (Nature Communications, 2022)

Experiments:
Experiment in all cases: holdup assay
Set-up in all cases: key: below the threshold = too weak to quantify, mostly under pKd 3.1 to 4
Conditions in all cases: plain residues with an end cap or a label only (N-terminal biotin on a linker: ttds)
[1] = biological target: MAGI2_6, Q86UL8
[2] = biological target: T1, DLG3_3, Q92796
T1 sequence (Q92796 374-475, limits assumed, looked up): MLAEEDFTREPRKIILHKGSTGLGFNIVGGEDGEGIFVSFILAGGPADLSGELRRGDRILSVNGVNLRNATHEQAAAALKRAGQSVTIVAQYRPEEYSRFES

[3] = biological target: MAGI1_1, Q96QZ7
[4] = biological target: LNX1_1, Q8TBB1
[5] = biological target: CASK, O14936
[6] = biological target: T2, TX1BP3, O14907
T2 sequence (O14907 10-122, limits assumed, looked up): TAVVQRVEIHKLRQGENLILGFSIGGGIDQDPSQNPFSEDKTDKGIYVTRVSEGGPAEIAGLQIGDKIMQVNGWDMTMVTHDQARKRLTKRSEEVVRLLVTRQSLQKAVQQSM

[7] = biological target: T3, APBA1_1, Q02410
T3 sequence (Q02410 651-752, limits assumed, looked up): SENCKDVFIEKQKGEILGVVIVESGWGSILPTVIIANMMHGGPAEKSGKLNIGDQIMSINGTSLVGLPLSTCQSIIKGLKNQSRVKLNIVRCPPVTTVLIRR

[8] = biological target: Inadl_3, Q8NI35
[9] = biological target: T4, TJP3_3, O95049
T4 sequence (O95049 375-456, limits assumed, looked up): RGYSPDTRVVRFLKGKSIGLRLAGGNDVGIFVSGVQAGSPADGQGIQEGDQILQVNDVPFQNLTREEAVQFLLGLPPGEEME

[10] = biological target: FRMPD2_3, Q68DX3
[11] = biological target: GIPC2, Q8TF65
[12] = biological target: Inadl_9, Q8NI35
[13] = biological target: T5, SNTG1, Q9NSN8
T5 sequence (Q9NSN8 52-150, limits assumed, looked up): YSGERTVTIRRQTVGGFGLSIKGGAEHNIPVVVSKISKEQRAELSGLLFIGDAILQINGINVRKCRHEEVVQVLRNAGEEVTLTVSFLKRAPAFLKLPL

[14] = biological target: TJP1_3, Q07157
[15] = biological target: T6, LIN7B, Q9HAP6
T6 sequence (Q9HAP6 88-185, limits assumed, looked up): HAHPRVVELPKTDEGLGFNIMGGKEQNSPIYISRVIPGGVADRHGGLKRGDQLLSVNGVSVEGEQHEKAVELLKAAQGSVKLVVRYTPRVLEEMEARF

[16] = biological target: T7, GRIP1_2, Q9Y3R0
T7 sequence (Q9Y3R0 145-248, limits assumed, looked up): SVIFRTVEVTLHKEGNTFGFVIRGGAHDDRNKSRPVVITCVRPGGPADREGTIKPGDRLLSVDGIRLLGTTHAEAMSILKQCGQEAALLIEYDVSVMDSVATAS

[17] = biological target: T8, MPP2, Q14168
T8 sequence (Q14168 180-250, limits assumed, looked up): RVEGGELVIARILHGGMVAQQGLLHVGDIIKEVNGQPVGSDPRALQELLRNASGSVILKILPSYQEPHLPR

[18] = biological target: T9, NHERF3_3, Q5T2W1
T9 sequence (Q5T2W1 238-333, limits assumed, looked up): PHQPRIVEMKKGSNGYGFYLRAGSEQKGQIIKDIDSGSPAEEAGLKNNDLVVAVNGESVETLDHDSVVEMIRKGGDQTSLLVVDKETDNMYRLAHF

[19] = biological target: MAGI2_4, Q86UL8
[20] = biological target: Inadl_8, Q8NI35
[21] = biological target: T10, DLG3_1, Q92796
T10 sequence (Q92796 125-227, limits assumed, looked up): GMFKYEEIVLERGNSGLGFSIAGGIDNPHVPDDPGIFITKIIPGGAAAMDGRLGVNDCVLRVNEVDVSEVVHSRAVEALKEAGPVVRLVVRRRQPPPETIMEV

[22] = biological target: LNX1_2, Q8TBB1
[23] = biological target: T11, DLG3_2, Q92796
T11 sequence (Q92796 221-321, limits assumed, looked up): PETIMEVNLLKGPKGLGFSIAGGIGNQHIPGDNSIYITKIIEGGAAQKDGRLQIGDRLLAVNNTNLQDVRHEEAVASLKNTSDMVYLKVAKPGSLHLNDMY

[24] = biological target: NHERF4_4, Q86UT5
[25] = biological target: DLG4_2, P78352
[26] = biological target: T12, PTPN13_1, Q12923
T12 sequence (Q12923 1088-1188, limits assumed, looked up): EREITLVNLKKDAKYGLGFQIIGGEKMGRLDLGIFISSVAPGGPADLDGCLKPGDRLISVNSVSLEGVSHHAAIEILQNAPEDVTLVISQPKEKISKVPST

Chain of MAGI2_4, Q86UL8 (Q86UL8 772-865): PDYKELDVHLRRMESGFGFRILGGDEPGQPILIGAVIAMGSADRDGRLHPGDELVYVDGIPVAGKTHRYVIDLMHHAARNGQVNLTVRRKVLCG
Chain of LNX1_2, Q8TBB1 (Q8TBB1 371-470): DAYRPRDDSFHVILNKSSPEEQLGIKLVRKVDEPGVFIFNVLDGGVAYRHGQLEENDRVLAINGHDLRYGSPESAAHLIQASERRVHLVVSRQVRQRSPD
Chain of MAGI2_6, Q86UL8 (Q86UL8 1141-1229): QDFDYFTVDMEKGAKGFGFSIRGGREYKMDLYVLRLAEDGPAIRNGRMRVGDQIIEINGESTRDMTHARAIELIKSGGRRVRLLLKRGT
Chain of FRMPD2_3, Q68DX3 (Q68DX3 1073-1166): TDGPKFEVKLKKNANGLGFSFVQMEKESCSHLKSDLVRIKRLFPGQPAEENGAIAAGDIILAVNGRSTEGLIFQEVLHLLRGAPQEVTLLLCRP
Chain of NHERF4_4, Q86UT5 (Q86UT5 464-550): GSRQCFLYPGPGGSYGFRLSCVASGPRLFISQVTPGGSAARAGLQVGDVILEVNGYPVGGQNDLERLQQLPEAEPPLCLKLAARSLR
Chain of TJP1_3, Q07157 (Q07157 416-512): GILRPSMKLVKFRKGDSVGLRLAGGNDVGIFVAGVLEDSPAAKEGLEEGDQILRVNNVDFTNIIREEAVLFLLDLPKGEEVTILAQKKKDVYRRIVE
Chain of Inadl_3, Q8NI35 (Q8NI35 359-469): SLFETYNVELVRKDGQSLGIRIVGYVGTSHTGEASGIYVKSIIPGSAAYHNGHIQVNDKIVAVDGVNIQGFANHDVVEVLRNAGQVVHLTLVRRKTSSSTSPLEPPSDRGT
Chain of LNX1_1, Q8TBB1 (Q8TBB1 261-371): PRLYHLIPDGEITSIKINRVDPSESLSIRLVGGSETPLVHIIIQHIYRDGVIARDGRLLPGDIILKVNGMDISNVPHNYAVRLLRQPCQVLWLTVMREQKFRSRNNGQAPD
Chain of GIPC2, Q8TF65 (Q8TF65 112-203): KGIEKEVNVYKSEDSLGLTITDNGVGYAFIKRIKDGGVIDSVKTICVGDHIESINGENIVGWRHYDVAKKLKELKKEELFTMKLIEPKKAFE
Chain of CASK, O14936 (O14936 487-570): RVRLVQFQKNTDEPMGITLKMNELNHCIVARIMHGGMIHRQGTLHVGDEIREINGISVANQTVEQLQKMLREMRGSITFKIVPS
Chain of Inadl_9, Q8NI35 (Q8NI35 1530-1615): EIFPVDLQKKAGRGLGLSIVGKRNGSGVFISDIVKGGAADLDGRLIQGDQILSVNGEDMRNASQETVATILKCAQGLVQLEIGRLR
Chain of DLG4_2, P78352 (P78352 155-259): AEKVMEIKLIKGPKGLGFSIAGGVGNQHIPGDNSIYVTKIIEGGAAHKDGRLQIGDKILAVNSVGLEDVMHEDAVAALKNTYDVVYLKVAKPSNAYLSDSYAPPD
Chain of MAGI1_1, Q96QZ7 (Q96QZ7 1-106): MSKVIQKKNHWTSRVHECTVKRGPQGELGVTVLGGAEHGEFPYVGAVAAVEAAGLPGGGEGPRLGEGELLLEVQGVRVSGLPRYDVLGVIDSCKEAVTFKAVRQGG
Chain of Inadl_8, Q8NI35 (Q8NI35 1425-1530): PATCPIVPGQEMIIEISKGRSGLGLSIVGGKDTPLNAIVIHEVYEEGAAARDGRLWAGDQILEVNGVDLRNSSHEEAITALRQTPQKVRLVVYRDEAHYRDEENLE

- pKd [1]: 5.15
- pKd [2]: below the threshold
- pKd [3]: below the threshold
- pKd [4]: 3.47
- pKd [5]: below the threshold
- pKd [6]: 5.99
- pKd [7]: below the threshold
- pKd [8]: 3.7
- pKd [9]: below the threshold
- pKd [10]: below the threshold
- pKd [11]: 3.8
- pKd [12]: below the threshold
- pKd [13]: 3.71
- pKd [14]: below the threshold
- pKd [15]: below the threshold
- pKd [16]: below the threshold
- pKd [17]: below the threshold
- pKd [18]: below the threshold
- pKd [19]: below the threshold
- pKd [20]: below the threshold
- pKd [21]: below the threshold
- pKd [22]: below the threshold
- pKd [23]: below the threshold
- pKd [24]: 4.04
- pKd [25]: below the threshold
- pKd [26]: below the threshold
B1: CTNNB1, P35222 (peptide)
chain: NQLAWFDTDL
